This series is described as follows: soluble on expression in E. coli; label from the status in PepcDB or PDB records.
Take “MGSDKIHHHHHHMGAMRPNQTFSHKAAVKLRSVEFLQYAGVTKFHDVILTSLVDINIGIGKRGSAQIKLPYTCVSGSLANTSGTADISLAYTHAVLVKDTYQLLGTLGGKLPTNNADKLSSDGRPLPMYYQTSLGTNDLVVGLSFITRKWLLATGYQHAFNQIGNDFRWSEWNSSAQRTEALEYPPSWNLKRGSDVMFRIERNFRSTKWNAYLGLLTIYRITPDQVSKGTSENRVEVPNTTGPAITALSGAGYRFSTAVALKAMVGVKIINRDTNPDGLSREFVSSLSVEIRL”: the “soluble on expression in E. coli” value is listed as “not soluble”.

Take “MGSDKIHHHHHHMIYIGLTGWGDHDELYTMGTKPSEKLYTYGSHFPTVEVDSSFYAIQPKRNMEKWASDTPDCFRFVVKAYQGLTGHQRGEIPFSSKEDMFAAFVESLQPLLESNKLAMVLFQFPPWFDCTKEHVRYLRYCKQQMGKIPVALEFRHQSWFRPSVRERTLSFMREEGWIHSICDEPQGGEGSVPTVLVPSNEENVLVRFHGRNVEGWRRPQEGNWREVRYLYRYSKEELAEWAEHLKQLAAQVKDVYVLFNNNSGGDAAANAKQMLELLEIEYHGLTPKQLNLFE”: the “soluble on expression in E. coli” value was “not soluble”.

As for “MGSDKIHHHHHHMCSDHIRLPAQLAAGDVAIRVENLSKRFAVYHTRLERLKHIVAPRRTKGFAEFWALDHVDLTIGRGEACAIIGRNGSGKSTLLQILCGTLRATSGRVAVNGRVAALLELGAGFNADFTGRENVYLNGAVLGLSHTEINERFVEIEAFAEVGDFIDQPVKTYSSGMYVRLAFAIAIHVDPQILIVDEALAVGDARFQAKCLNRIKKMQADGVTLLFVSHDVSAVRTLCDRALWLDCGKVKMLADAFSVTAQYSQFLFEGEDYAVAGNGSGSPQDSSGALQSAASQDISPSAHPEEANQSRAGACGEELMAMHRPINHWGSHVGSIVQAGIYNARGERASTFVAGEPIEVRVIFRPPLNADRKTMSVAFSLKDLRGTDLIVSTTWDQRRLDFEQAGGEACIRFRLRNQLNRGSYLLAVALEDRAGVAPQYYEYIEGAHYFTSLVEDTLFGSFVVDVEQTIEPGHSLYANARVSV”, the “soluble on expression in E. coli” value is given as “not soluble”.

With “MGHHHHHHSHMLWECKQLGAHSPSTLLTTLMFFNTKYFLLKTVDQHMKLAFSKVLRQTKKNPSNPKDKSTSIRYLKALGIHQTGQKVTDDMYAEQTENPENPLRCPIKLYDFYLFKCPQSVKGRNDTFYLTPEPVVAPNSPIWYSVQPISREQMGQMLTRILVIREIQEAIAVANASTMH”, the “soluble on expression in E. coli” value was “not soluble”.

Regarding “MRINFEKANSNHINIIFSWLKEPFIQEFWDNTQAHKDDILNFINGRTEPSSYADGKYVYWIASGNGHPFAMLMTIQETSEDEIDDIKLINLSKTGHSYGIDYMIGDKNYFGIGYGARTLIEFIDFFIKEVDPKADTFLIDPASDNPRAKHVYIKAGF”, the “soluble on expression in E. coli” value is “soluble”.

Regarding “MNLITDETLVEPNLPTFEELTRVHDRKYLKSVRNPIKAAQIVEIPFVGCLPPCIIESKLLHPLRLQAGGTVLAANLALKHGWAINVGGGFHHASHSGGGGFCFYADITMAIFDLFDKKAIANAIVVDLDAHQVLEKTFERI”, the “soluble on expression in E. coli” value is “not soluble”.

Regarding “SAEFRVRVSTGEAFGAGTWDKVSVSIVGTRGESPPLPLDNLGKEFTAGAEEDFQVTLPEDVGRVLLLRVHKAPPVLPLLGPLAPDAWFCRWFQLTPPRGGHLLFPCYQWLEGAGTLVLQEGTAKVSWADHHPVLQQQRQEELQARQEMYQWKAYNPGWPHCLDEKTVEDLELNIKYSTAKNANFYLQAGSAFAEMKIKGLLDRKGLWRSLNEMKRIFNFRRTPAAEHAFEHWQEDAFFASQFLNGLNPVLIRRCHYLPKNFPVTDAMVASVLGPGTSLQAELEKGSLFLVDHGILSGIQTNVINGKPQFSAAPMTLLYQSPGCGPLLPLAIQLSQTPGPNSPIFLPTDDKWDWLLAKTWVRNAEFSFHEALTHLLHSHLLPEVFTLATLRQLPHCHPLFKLLIPHTRYTLHINTLARELLIVPGQVVDRSTGIGIEGFSELIQRNMKQLNYSLLCLPEDIRTRGVEDIPGYYYRDDGMQIWGAVEHFVSEIIGIYYPSDESVQDDRELQAWVREIFSKGFLNQESSGIPSSLETREALVQYVTMVIFTCSAKHAAVSAGQFDSCAWMPNLPPSMQLPPPTSKGLATCEGFIATLPPVNATCDVILALWLLSKEPGDQRPLGTYPDEHFTEEAPRRSIATFQSRLAQISRGIQERNRGLVLPYTYLDPPLIENSVSI”, the “soluble on expression in E. coli” value is reported as “soluble”.

Regarding “MLAAFQQQQTRKFSPITNTSASCLNMQPNPPKISIAPSVISVIGVHMEKHKLKIKTGQNIVLSASILPIQATNKELIWSNMNSDIITIYPKGDTVTITGKSAGKAVVIVTTAEGKFRDLCVIHVQPYMTNPK”, the “soluble on expression in E. coli” value is reported as “not soluble”.

In the case of “MANCENNPWKKNAWGKNEETAEEPIVSFADVLSEEFIEDLSVQEKLEEERYMKQLDQMFGDTSVSDDQLPINTEGMTDEEVALALQRHFDREADVARAVGSSSSVHFTPDRYHPKTMQETDSENEDDDALRQAATDMLYAKLDEENATNSRLRPEGPSTSRTKHDTGVSGRRNADKTFNDRNTLPTGDMVGDKLNNKVFNKLMAFGKSESKRQMRNKDKEEKATMDTSVDSDTRLLLLKWINQGVFDSVDGIIATGKESAVLHAAQDSATSYAIKVYKTTLSEFKNRSEYVKDDFRFKNPRGVLKIWAEREFMNLSRMAKHGLPCPQPVKVRRNVLVMSFLGDQGLAAPRLKNVEWEFFTDDERRNVYDQVQSIMCRMYKECLLVHADLSEFNLLLTPDNKVHVIDVSQAMDLSHPRSLQFLTRDIQNIITFFTRIGTPNLPTYVQLFNLITDLDMVEDHDLLVQVEQFSEENRSVDLRHDKSRPADMELKKYNEEKKANRGISPAREYN”, the “soluble on expression in E. coli” value is “not soluble”.

For the sequence “MKVKCEECGETYTLNDGEDPDDYICECGGKLKRETFLRRTALGVGVFSIP”, the “soluble on expression in E. coli” value was “not soluble”.

Take “MSLKILITGSNGLLGQKLVSLLYLKPEITLIATARGANRDEIYEDYIYESMDITSEENVLKVFRKHKPDAVIHTAAMTHVDQCELNKEACVDQNITSVKHIVKACKEVGAFLLHVSTDFIFDGTRGPLTEEEIPNPVNYYGWTKWEAEKAVENSGLKWAIARTVLVFGVVQDMSRSNIVLWVKNNLEQKKEINVVNDQWRTPTLAEDLAMGCWLIVKNQAEGIFNISGEEMLSPYELAHKVADVWKLDKGLIKQADSSTFTQPALRPPKTGFIIDKAKKQLGYKPHTLEEGLDLLKEQLTEGHHHHHH”: the “soluble on expression in E. coli” value was “soluble”.

On to “MIHLARRRIVLTTPYFVPDEATLSALRIAGTSGVDVQLILSESNNQFLMAWAQEAYFEELLRAGIKIALYRPHFLHAKHLSVDDDIALFGSINLDIRSFALNAEIGMICYDSRIVTQLREVESDYLANARQLNLVEWQQRPAWRRSREGIARLADALM”, for which the “soluble on expression in E. coli” value is given as “not soluble”.

In the case of “YFKEKKIHPEAEMFDNRGFGVVAMMGLPLAGKDTYIKENFKNINVISLDDIREELNISSKRNSGKVAAIAISRAKQLLRRKESFIWNATNLRRENRQKLIRLCTAYGAKLKFIYLEVPYRELLSRNKMRSRYVPVEVINKMIRKMDMLEGEEIC”, the “soluble on expression in E. coli” value is on record as “not soluble”.

For “MAHHHHHHSLSELVIESWRADDKALWEQKIIPAFEAANPGIKVKFNPVPNVNYTPTLWENLKAGKAGDLITCRPFDDSLALFKAGHLAEITEMAGMENFPSFAQAPWQTDSGAQTFCVPMASVIHGFFYNKKIFNELGLSVPQTREQFFTVLDKVKADGRYIPLSMSGSESWVASELGYQNIGPNYWKGEDGRLALINGQEHLDDSQYVKVFEELARWRAYLGEDGELRDYGTSNELFTSGKAALYVAGSWEIAPFTDKVDFGVMRPPVAKQGDGCFFTDHTDIGMGMNPASKNPQAAMAFLQWLTTPEFAELYTNSLPGFFSLSNHFFDVTNPAAREMMEWRDQCDSTIRVATQILSRGQPKLGDELAEVSQAVLVGKMTPTAAAERLEQGLKRWYAPHQTRKAKEQECQCVEPISPTTRLNTLPVVDIAPVVASDPVPPTEATILSEEG”, the “soluble on expression in E. coli” value is “not soluble”.

In the case of “MSLKVALVHDWLTNMGGAERVIINLKEIYKEAPIYTSLYNPDKLDDELRNIDVRTSFLQKPKNIKRGHQKLLPFMPMAFESFDLNEYDIVLSSCSSCAKGVVTNPNTMHVCYCHTPMRYAWEYYYEYADEWGLNKLKGKLLKYVMNYIRLWDGVSSKRVDYYIANSQNVAKRIWKHYKRESVVIHPPVRCKLFDISDVNEEYFLIVSRLVPYKRIDLAVEVFNELGLPLVVIGGGKDLDRLKNMAKDNIKFLGRQSDEVIKEYYSKCRAFIFPGEEDFGITPLEAQASGRPVIAYGKGGALETVVSGVTGVFFKEQTVDSLKSAVNEFEKINFDKSVIRRHAEEFDEEIFKKKIREYLSRSYDEFKKLKKWKVEGHHHHHH”, the “soluble on expression in E. coli” value is “soluble”.

With “MSLDCSIKMLKDVPVKMRDGITIYTDIYLPITEEKVPTLIAWSPYGKSAGTAPRYKNLFNMLGMGNAWNSGLTKFEAPDPAYWCAHGYAVCNPDMRGIAHSEGNTTMIGSQEAEDGYDLIEWLAKQSWSNGKTALTGTSYLAFSQWYIAAEQPPHLTCINPTEGLADGYRDLAFIGGIPDPNFIERLQINHVSAKNSQREDLTKEMEAYPLADSAIWKDKVADPSKITIPAFVIASYSNTLHTMGTFRSWRSLGSKEKWLRIHDRQEWPYYYDENNVEELRRFFDYYLLGKENNWTDTPTVRYALIDFQGGNQTDLPSEVFPPTNSENKRYYMNGLLRTLQETPTSDDFKVSYTTENLPGRASFQMTFDKETHFVGYPKAKLFMEVDGYDDLDVFVWLQKLDKFGNVLSEFVVPNHGAALQDFTQEGASALRYKGAWGRLRASMRQLDSQVSTDEIPAYSFDKVEKLSSGEIVELDIILSPIGLTYKAGETLRVVVSSKDELGSVMPGTPGCTPNNKGMHILHTSKEHPSYIQLPIINKEGHHHHHH”, the “soluble on expression in E. coli” value is recorded as “soluble”.

For “NDRHIRHDITRPLPFADNSVDAFQAEDVLEHIAYDRIVPVLNEIHRVLKPGAVFRLSVPDYRCDILDARTEKDATGAPVFDPGGGGTRENPGHAWFPRYETVKTLVEKSNFGTAGEISFLHYYDEHNLPAMREIDYAKGFIQRPPDHDPRVQTPYRPMSLVVDLTKRDVRIFSSFNNSASHA”, the “soluble on expression in E. coli” value is reported as “not soluble”.

In the case of “MWYQKTLTLSAKSRGFHLVTDEILNQLADMPRVNIGLLHLLLQHTSASLTLNENCDPTVRHDMERFFLRTVPDNGNYEHDYEGADDMPSHIKSSMLGTSLVLPVHKGRIQTGTWQGIWLGEHRIHGGSRRIIATLQGELEHHHHHH”, the “soluble on expression in E. coli” value is reported as “soluble”.

On to “MAIESEVLVIGGGLGGLTSALAAAREGADVRLVSYKQSTLRQASGLVDVLGYTPDGDGPLTDPYEAIPSLPEAHPYRKVGVQTVRDALSLFDDAVPTYEGEHTDTNALLPTHGGSIKPTARYPAGASAGLASDTRDTLLVGIEEMVDFDAPHVAAHLDATGVPFDVRGETIRFPGDLRADAKVTRYAKLLDTNSEVAVRGRMVPAREALAQRVNPLLEDEERVGFPAILGDDNPGAIRDALGDHLGVDVFEVPMGPPSLPGLRLEDALFSALDEAGASIETGNPVVDFDGEDRIEKVFIEKNGAKIPNSADQYVLATGGFVGKGVESDREGVYEPVFDCHIPHAADRYDWFEGELFGDHEFARYGVATDDDLRPLDASEHSEFENLRAAGSVLGGYDFAAEKSGSGVSIATGYAAGQRAAQEARLEHHHHHH”, for which the “soluble on expression in E. coli” value is listed as “soluble”.

In the case of “VANKIKLGHVHLSGCTGCLVSTADNNLGFIKILDNYADLVYSLTLADVRHVPEMDVALVEGSVCIQDHESVEEIRETREKAKIVVALGSCACYGNITRFSRGGQHNQPQHESFLPIGDLIDVDVYIPGCPPSPELIRNVAVMAYMLLEGDEDQKALAGRYLKPLMD”, the “soluble on expression in E. coli” value was “not soluble”.

Values taken from the DeepSol protein solubility set.
